Measured values: patent publication US20200040092A1 (YISSUM RESEARCH DEVELOPMENT COMPANY OF THE HEBREW …, published 2020)

Tests used:
[1] = biological target: T1, human PVR on cells (endogenous on HepG2 and other human tumor cell lines; full-length hPVR overexpressed in B16 cells) (human), P15151; experiment: FACS on B16-hPVR cells, anti-human-IgG APC detection; settings: remark: other sources report otherwise
T1 chain: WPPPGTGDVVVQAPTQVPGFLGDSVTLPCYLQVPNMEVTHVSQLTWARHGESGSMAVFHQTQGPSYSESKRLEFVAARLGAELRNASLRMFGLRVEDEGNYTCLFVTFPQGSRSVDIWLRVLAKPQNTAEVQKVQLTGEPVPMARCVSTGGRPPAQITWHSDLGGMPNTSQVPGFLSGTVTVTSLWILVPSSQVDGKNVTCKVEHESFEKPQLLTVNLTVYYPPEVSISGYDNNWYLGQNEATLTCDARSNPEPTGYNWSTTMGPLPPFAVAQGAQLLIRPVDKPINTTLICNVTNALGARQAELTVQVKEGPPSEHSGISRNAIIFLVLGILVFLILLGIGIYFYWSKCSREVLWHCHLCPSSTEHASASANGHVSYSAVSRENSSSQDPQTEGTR

[2] = biological target: T2, human PVR on cells (endogenous on HepG2 and other human tumor cell lines); full-length hPVR overexpressed in … (human, UniProt P15151 21-417); experiment: cell-based or functional assay
T2 sequence (looked up): T1 chain

[3] = biological target: T3, hNectin-2 on cells (CHO cells expressing hNectin-2); RPMI-8866 cells overexpressing hNectin-2; human tumor … (human, UniProt Q92692 32-538); experiment: FACS on the CHO cells expressing hNectin-2 of FIG. 7C
T3 construct: whole, on cells
T3 sequence (looked up): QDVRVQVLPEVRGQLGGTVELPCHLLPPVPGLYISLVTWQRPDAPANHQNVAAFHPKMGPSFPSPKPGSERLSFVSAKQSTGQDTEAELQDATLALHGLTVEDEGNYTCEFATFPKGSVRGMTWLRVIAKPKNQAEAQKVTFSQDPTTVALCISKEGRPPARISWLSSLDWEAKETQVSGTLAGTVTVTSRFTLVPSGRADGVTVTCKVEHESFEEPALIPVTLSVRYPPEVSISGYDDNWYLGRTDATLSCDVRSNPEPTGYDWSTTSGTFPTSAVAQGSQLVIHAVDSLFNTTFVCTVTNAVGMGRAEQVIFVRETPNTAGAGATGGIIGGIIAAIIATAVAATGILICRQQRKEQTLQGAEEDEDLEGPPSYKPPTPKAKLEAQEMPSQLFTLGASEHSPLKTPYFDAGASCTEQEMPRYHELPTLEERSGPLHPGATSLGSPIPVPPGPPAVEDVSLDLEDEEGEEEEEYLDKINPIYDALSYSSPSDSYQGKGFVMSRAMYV

[4] = biological target: T2, human PVR on cells (endogenous on HepG2 …); experiment: cell-based or functional assay; remark: listed apart in the source

B1: Human TIGIT-Fc, Q495A1 22-141 (Fc fusion, UniProt Q495A1 22-141, looked up, not shown: a dimerising Fc or GST)
chain: MMTGTIETTGNISAEKGGSIILQCHLSSTTAQVTQVNWEQQDQLLAICNADLGWHISPSFKDRVAPGPGLGLTLQSLTVNDTGEYFCIYHTYPDGTYTGRIFLEVLESSVAEHGARFQIP
[1]
  fold signal against DNAM-1-Fc: 2 to 4 fold

B2: anti-PVR monoclonal antibody 5B9 (antibody, mouse IgG1, V domains shown)
VH: QVQLQQSGAELMKPGASVKISCKATGYTFSNYWIEWIKQRPGHGLEWIGEIFPGSGRINFNEKFKGKATFTADTSSDTTYMQLSSLTSADSAVYYCARTKIYGNSFDYWGQGTTLTVSP
VL: DIMMTQSHKFMSTSVGDRVNITCKASQDVGTAVVWYQQKPGQSPKLLIYWASSRHNGVPDRFTGSGSGTDFTLTISNVQSEDLSDYFCQQYSRYPLTFGAGTKLELK
notes: also called hPVR.09; PVR.09
[2]
  Percentage of dead cells within 24 hrs relative to mIgG treated cells (MTT), A549: 25%
  Percentage of dead cells within 24 hrs relative to mIgG treated cells (MTT), HCT-116: 22%
  Percentage of dead cells within 24 hrs relative to mIgG treated cells (MTT), MDA-MB-231: 20%
  Percentage of dead cells within 24 hrs relative to mIgG treated cells (MTT), Mel-624: 32%
[3]
  binding result: no binding

B3: anti-PVR monoclonal antibody 7D4 (antibody, mouse IgG1, V domains shown)
VH: EVQLQQSGPELVKPGASVKISCKTSGYTFTEYTMHWVKQSHGESLEWIGGIDPNNGGTNYNQNFKGKATLTVDKSSSTAYMELRSLTSEDSAVYYCAGVIPLEYWGQGTSVTVSS
VL: DIVMTQSQKFMSTSVGDRVSVTCKASQNVYTNVAWYQQKPGQSPKALIYSASYRYRGVPDRFTGSGSGTDFTLTISNVQSEDLADYFCQQYNSYPLAFGSGTKLEIK
notes: also called hPVR.01; PVR.01
[4]
  NK cell killing of the human breast adenocarcinoma cell line MDA-MB-231 ([35S]-Methionine release, specific killing): 2 fold
[3]
  binding result: no binding

B4: anti-PVR monoclonal antibody 4E5 (antibody, mouse IgG1, V domains shown)
VH: EVKLLESGGGLVQPGGSLKLSCAASGFDFSRYWMTWVRQAPGKGLEWIGEIHPDSSKINYTPSQKDKFIISRDNAKNTLFLQMSKVRFEDTALYFCARPDGNYNALDYWGQGTSVTVSS
VL: DIVMTQSHKFMSTSVGDRVSITCKASQDVGTAVTWYQQKPGQSPKLLIYWASTRHTGVPDRFTGSESGTDFTLTISDVQSEDLANYFCQQYSRYPYTFGGGTKLEIK
notes: also called hPVR.07; PVR.07
[3]
  binding result: no binding
